From the DeepSol protein solubility set

experiment: soluble on expression in E. coli; label from the status in PepcDB or PDB records

Soluble on expression in E. coli, not soluble:
MGSDKIHHHHHHMTIIAGTVVKGKQLGRKLGFPTANVDAKIHGLRNGVYGVLATVNHQFHLGVMNIGVKPTVGSNLEKTLEIFLFDFHRDIYGEKIECSILFKIREERRFDSLESLTKQIKKDISCVAKRFELIGIMAPNKKESLLSHQELNLPDLCFYKKCNNLYGVNRGVYNVIDNWFFEYGITQVAYRRIYILSFLSFLKEDNPKVSSKYIRFGAGGLADKLNRFISSYVEESEENILG, MGSDKIHHHHHHMTILSDVKALGQQIWLDNLSRSLVQSGELAQMLKQGVCGVTSNPAIFQKAFAGDALYADEVAALKRQNLSPKQRYETMAVADVRAACDVCLAEHESTGGKTGFVSLEVSPELAKDAQGTVEEARRLHAAIARKNAMIKVPATDAGIDALETLVSDGISVNLTLLFSRAQTLKAYAAYARGIAKRLAAGQSVAHIQVVASFFISRVDSALDATLPDRLKGKTAIALAKAAYQDWEQYFTAPEFAALEAQGANRVQLLWASTGVKNPAYPDTLYVDSLIGVHTVNTVPDATLKAFIDHGTAKATLTESADEARARLAEIAALGIDVETLAARLQEDGLKQFEEAFEKLLAPLV, MGSDKIHHHHHHMTIQIDLPETSTNKIIYSDECKDILNLSVAKIQEMFKSSGIILFRGFGITHELMQVFAEQFSSRLTRDDDKPLVEPNGFVSLVDIGMHEILPHRENGSSPFSPDAVWFCCTVPAAEGGETLFWDGIQVWQKLSEELRKLFISKKIKFVHKFPADKWKHFLGSDATISDAKRVLDGFNNVKYQIDQEESIYTEYICSAVLQTKYGNQNAFVNDIITGNSNLKGSVNLELESALTFEDGSLIPDAAIEEIEKVMYSLTQEIRWKPGDLVMIDNSRFLHGRRAFSDNRRRLFSLLSYLNF, MGSDKIHHHHHHMTIRGKAYIAGIYEHPTRHAPDKSIAQLHAEVAKGALDDAGLTKADIDGYFCAGDAPGGVMAMVDYLGLKVRHFDSTDTGGCSYLVHLGHAAEAIAAGRCSVALITLAGKPRTGALPPRPVGAEGDFELAYGATTHNVYAMCAARHMHQYGTTSEQLAWIKVAASHHAQYNEHAMLRDVVTVEDVLNSPLIADPLHRMDCCVVTDGGGALIVTTEEIARSLKKPLVRMIGAGEAIKGPRGGHNLDLTYSAGVWSAPPAFEMAGVTPKDIKYASIYDSFTITVLMQLEDLGFCEKGQGGKFVADGNLISGVGKLPFNTDGGGLCSNHPVNRGGMTKLLEAVRQLRGEAHPKVQVPNCDLAIAHGTGGMLGIRHAASTCILERV, MGSDKIHHHHHHMTISAQCNLQKLAFATTLAVTIVLSQGRAIGQVKHGSPIELAKADVSTAVRQDMANEVRIVGSLTPIRRSTLTSRVSSTIIELPVQIGDVVNAGDLLVRFERGALESAVTGRKAEADALSAQTELAEAVLERNTRLGERGAASEATRLAALADVLDLRAQLRSKQAEVSDAERSLSHAEVRAEFGGVIAARSVEEGQTVPLNTQLMTIVELNRLEVDAGVPTSRIPLIRLKQSVELTVEGFPGRTFSGEVARISPTADAGSRAVRVFIAVDNEEGLLRGGMFTIGDLRVDDQKDVIALPAASIRHDADGFFVLKVEAGVLQRRPVGLGRSWSDRDLVQVSGVSEGDVIVTAPLPDLVVNTPVIIEGI, MGSDKIHHHHHHMTKEQSYPPTCIDCGTQNCKFKERTYPEFCLTTHLEQEDLEWALKQYNDNNKIMAASAEVEYEGYCRLTRVEEIMTFARKMGYKKLGIAYCIGLVNEARIFARILRANGFEVYSVICKVAGIAKSSIGIPKECEKIGAAMCNPILQARLLNQAYTELNVVIGLCVGHDSLFYKYSNAYTTTLVTKDRVTGHNPAAALYTANSYYRKKLMPEGEQSK, MGSDKIHHHHHHMTKFIVDSSYWNLFPTSKIGVILIKDYHMDRNLETELKQLLSDSHSLAKKYLQEKEFSQNRVIQTYRKAYQTFKTKKGARSSIEALLKRVNSGNEITSINPLVDIYNAASLRFGLPIGAEDSDTFRGDLKLTITNGGDEFYLIGEDFNRPTLSGELAYVDDVGAVCRCFNWRDGKRTMITDNTQNAFLVIELIDNGREIIFKEALDFIATNTNRFLKAKTQTIILDKEHSEITL, MGSDKIHHHHHHMTKPFYWNELNTYDFASLSPDSTIAVLPIASTEQHGPHLPIATDVAIANGMLAELKRQRPDDLNFLVLPTQEIGKANEHVYGPGTLSLSADLLIAAWTAIGAKVAEAGLRKLVIVNSHGGNVDIMSIVGRELRVRHKMAVVSTQWSRFGNPEGMISEHENRYGIHGGEVETSLMLHFRPELVRMDKAENFVSKAEWMKERSDFLQPLPPHSLAWIAHDLNPAGVVGDASKGTAEKGEAICRHQVSGFIQLLRDVRDYPLSALYSPE, MGSDKIHHHHHHMTKRDPSTLIRIARENGAEAEAEPLDLGARVRELRKARDWTLEQAASQAGLARSTLSKIENGQMSPTYDALKKLAVGLQISVPQLFTPPQKGQVNGRMTVTKSGSGSGHATATYEHELLADSLTKKQMLPYRARVRARAMEEFDGWVRHDGEEFLYVLTGVIRLYTEFYEPIEMRRGDSAYYDASMGHNVVSVSDEDATILWVTSLV, MGSDKIHHHHHHMTKSKISNPKLPMALQTSTIFSLQAPKDISLNEIDAELNQIWQSYGITGEDGGLPSATRATTFTLVVYEPEETQYLLAALGFYNGPIDGILGPQMAAALREVQKKHKLPETGTATQETLTILREEFAKGQRGGTGGEHAIAGLNSSSPRIADEIALRNPCRIIALFPITGEDEGVKAQVSAYCPIQKQSSSTLICCEYITLSGTAAALERIGGMIPALLIGGLPKFLWWKATPDPNNGLFKRLAAICNNVIVDSCNFNEPESDLLRLEELVEAGVPLADLNWRRLASWQELTAEAYDSPKRRAALREIDRVTIDYEKGNPAQALLFLGWLASRLEWQPVSYQKESGDYDITRIHFISQDQRQVEAELAGVPVADVGDIIGDLIALRLSSTNPQADCGTVICSETGGCMRMETHGGAQSAGLFQQVTSLSEQKAEALLSQQVQRWGRESLFEESLGVTANIFKLAN, MGSDKIHHHHHHMTLDNPVANKFSIAASQYKQHDVLQRITAKQLLDNAPLFGTLLDVGAGPGTSFNAFNDVEQVVAVDIAHGMLNQLTKQYPDYLPICSDAQALGLQSASIDSIYSNLALQWCQNLPEAFAEFHRVLRQNGECYLSVVVDGSLAELKTLGFRVNQFNSVSAIKAAFIASQDSPNDWLNIDIQVKSISVYFDDLRSLLYSIKGVGASFAQQGENNATHHHPLTKQQWQQRIALAETMRTDKGIPLTYQIAYIRAKRG, MGSDKIHHHHHHMTNSIMALPSSIRHYRRKQMAINQVAQTPAISPLTIKERTGSISTAEMISVLKGETTALHIKQAFSTEVAEEITTNFLGSPGLKERKDGVPGQYVGASHYRKDAATYFAESETARPHVDALFENLVDPVRGSFDALKRELHKQGIELRLARSEHGHANVCRALSWSGSGTFSLDPHDDVAQVLSAGNDYELSAVAHNTVAALNFYPSMPEEGGNLRLWSHKPTVADRKSQGVETTGYPYSSAYLEAVPCREFQLKPGDIALIDGGFVHGVTGQSGNGKRRLVLNSFFGFARPDLVLWWT, MGSDKIHHHHHHMTNWNLWRTLNMEYIINPCSGIKIKITRGQKIKIVDIEGGQVVDFFAEMKDDSTEFISPGVTIDCNESLRLQVGNLIYSNKYRPMFKILYDDVREHDLLHPCCRPEMYDFFYHNGENHPNCFDNINRTLGTSHQIIHPINFFMYTKVNTDGSIEVCEPLSKANDKIILEALENMTLGIAACSVSESSCNSRKCTSIKILVD, MGSDKIHHHHHHMTPLAPHEASQDESAIAERIASAMPRMTPIHRRMGEFVLANPFRAATMRIDELAQAVNASIATANRFAKALGFDGYPAMRAALVRGFEATLGPVERLRSAQEQEQEQGVRGAAWIDAVFDQAIENIENTRARLDATDVEAAVEAIVGARRVLILGAGSSAFLTGLMEHGLSVCHDNVQSLALLGGPTHAARRLYTADSRDLVIALAFPRYVKDTIELARRAAARGARVLGISDGPGSPLAPVASLNLYVKAQRRFAATSEAAVLTMIEALIDAVALRTHRSAKSAAEMTEFLLPWLMQPPAALPAANPSSSGPKKS, MGSDKIHHHHHHMTQDLAQFAAERGIKYFMISYTDLFGAQRAKLVPAQAIADMQKDGAGFAGFATWLDLTPAHPDLFAVPDASSVIQLPWKKDVAWVAADCVMDDKPVEQAPRVMLKKLVDEAASMGLRVKTGVEPEFFLISADGKTISDEFDTAEKPCYDQQALMRRYDVIAEICDHMLELGWKPYQNDHEDANGQFEMNWEYDDALKTADKHSFFKFMVKSVAEKHGLRATFMPKPFKGLTGNGCHAHISVWDNDGKVNAFADKAMPFGLSAKGKTFLGGIMKHASALAAVTNPTVNSYKRINAPRTVSGATWAPNTVTWTGNNRTHMVRVPGPGRFELRLPDGAVNPYLLQAIIIAAGLSGLKTNADPGPHYDIDMYREGHTVTDAPKLPLNLLDALRAYEADTELQQALGEEFSAAYLKLKHGEWTSYCSQFTPWEHQTTLDI, MGSDKIHHHHHHMTQSFIVDEAFWQLFPEVEIAFLTAQDIDNHAKEQVPTDLLTTANHVAATKWVPNDPISQNTVVQDWRQAFQQFKTKKGARCAVENLLKRAKNGKGVGTINPVVDVYNSVSLEWAFPVAAEDMDQIKGDIHLTVAQGGERFRPIGEDDVETALPGEVIYRDAYDVISRCWAWRDSARVEATEATQNLLFYMENVNPQRHADHVAATAALRTRLHDYLGISTTLHVVTHDQPSVAFKD, MGSDKIHHHHHHMTQSPDLQAVLDYADAHMNDSLARLFDLVRIPSVSTVPAHAGDCRAAAQWLSDQLNDLGFDASVRPTGGHPMVVAHQTDADGPHVLFYGHYDVQPVVPLELWKTDPFEPTLEPQPNGDTHITGRGASDDKGQLLTFIEACRAWKAVTGRLPIKVSMLFEGEEESGSQSLGPFLEQTAEELRADVMMVCDTDMWDRDTPAITTMLRGLVGEEFTITTADRDLHSGMFGNAARNALQVASDAIAGLRGPDGGVTLPGFYDGVEDLAPEIKAQWKSLPFDQEGFLSDVGLSLPAGEDAYSIMEQIWARPSCEIHGVIGGYTDEGFKTVIPAKATAKVSFRLVAGQDPARIREAFRAHIRAYVPKDCSVEFTSHGASPALSLPLDSPYLTATREALSQEWGTEAALAGTGGSIPIVGEFKRQLGMDTLLVGFARFDNRIHSPNEKYDLSSFTGGIRSFVRVLAALSEIEAAAAP, MGSDKIHHHHHHMTQTSSPLRNRYEFLLLFDVENGNPNGDPDSGNAPRVDPEDGHGLVSDVALKRRVRNYVQAAGEQIFIQHGTNLNRPIFQAKQASGGGSKGKQDVDAARRWMCEHFYDVRTFGAVMSTGANAGQVRGPVQLTFARSLDPVFAIEASITRGAVAEDIKNAKTLDDFLNWEAQQDEDKLRTMGRKSLIPYGLFATKGFVSAHLAQGTGFSEADLKLLLEALLNMYEHDRSASKGLMSSRRLFVFRHVGTDSDPQQRARQAVLGCAPAHKLLDLGQVIEVRRKDEHKPARALSDYEVTVHLDRLPAGVELLDLDSWDEARYHDGWQSR, MGSDKIHHHHHHMTQVPPSASPADLLAVLERIATALERQGAPAVPANSLDGADAFVWHAAESWLEPVCRVNRVDIALLQGIERQRQTLYDNTLRFAHGLPANNALLWGARGTGKSSLVKAVHASVNQALTAKGAAPVALVEIHREDIPTLPRLLRILAASGRPCLLFCDDLSFDGNDSSYKSLKAVLEGGIEGRPDTVIFYATSNRRHLLAREMVENEQSTALHAGEAVEEKVSLSDRFGLWLGFHNVDQPTYFDIVDGYARAYGLDIETEDLHREAREWSMARGSRSGRTAWQFIQDLAGRLGKTLE
